Experimental findings from article PMC6168492, “Human and mouse albumin bind their respective neonatal Fc receptors differently” (Scientific Reports, 2018) are described below.

In assay [1] the target is T1, wild-type mouse serum albumin with C-terminal GST (mouse, UniProt P07724 25-608).
T1 construct: mouse serum albumin; also called MSA WT; WT MSA; source: HEK293E, transiently transfected, purified from supernatant (GSTrap FF); not shown: GST (Schistosoma japonicum), C-terminal, kept
The assay is described as follows: SPR; Biacore T200; albumin variants amine-coupled on CM5 (~200 or 500 RU); monomeric His-tagged hFcRn or mFcRn injected in serial dilutions; phosphate buffer (177 mM phosphate, 85 mM NaCl, 0.05% Tween 20) pH 5.5, 30 µl/min, 25 °C; 1:1 Langmuir model. The settings on record: both partners purified.

For assay [2], the target named is T1, wild-type mouse serum albumin with …. Description: SPR; receptor binding to immobilised albumin at pH 5.5 in the presence of 0.005% Tween-20 instead of 0.05%. The settings on record: both partners purified. A general note: In SPR one partner is held on a chip, and binding of the other changes the refractive index at the surface.

T1 sequence (P07724 25-608): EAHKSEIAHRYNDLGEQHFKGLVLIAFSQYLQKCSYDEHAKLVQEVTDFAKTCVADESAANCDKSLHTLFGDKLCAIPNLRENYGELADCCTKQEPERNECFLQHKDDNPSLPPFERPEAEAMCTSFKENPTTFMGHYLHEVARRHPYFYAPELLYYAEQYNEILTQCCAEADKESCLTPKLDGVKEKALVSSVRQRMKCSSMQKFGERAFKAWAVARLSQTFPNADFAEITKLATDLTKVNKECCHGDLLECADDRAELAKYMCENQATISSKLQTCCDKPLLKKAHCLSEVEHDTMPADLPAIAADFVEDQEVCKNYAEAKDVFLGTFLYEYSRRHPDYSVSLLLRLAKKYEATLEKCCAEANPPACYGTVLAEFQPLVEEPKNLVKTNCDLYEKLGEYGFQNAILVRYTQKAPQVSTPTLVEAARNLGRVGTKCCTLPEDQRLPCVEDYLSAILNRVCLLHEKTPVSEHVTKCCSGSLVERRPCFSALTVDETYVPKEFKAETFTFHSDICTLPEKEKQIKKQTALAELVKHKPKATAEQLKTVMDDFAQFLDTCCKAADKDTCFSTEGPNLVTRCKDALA

B1: soluble monomeric His-tagged mouse neonatal Fc receptor (mFcRn) (receptor)
chain: SETRPPLMYHLTAVSNPSTGLPSFWATGWLGPQQYLTYNSLRQEADPCGAWMWENQVSWYWEKETTDLKSKEQLFLEALKTLEKILNGTYTLQGLLGCELASDNSSVPTAVFALNGEEFMKFNPRIGNWTGEWPETEIVANLWMKQPDAARKESEFLLNSCPERLLGHLERGRRNLEWKEPPSMRLKARPGNSGSSVLTCAAFSFYPPELKFRFLRNGLASGSGNCSTGPNGDGSFHAWSLLEVKRGDEHHYQCQVEHEGLAQPLTVDLDSSARSS
b2m: IQKTPQIQVYSRHPPENGKPNILNCYVTQFHPPHIEIQMLKNGKKIPKVEMSDMSFSKDWSFYILAHTEFTPTETDTYACRVKHASMAEPKTVYWDRDM
notes: neonatal Fc receptor heavy chain, mouse, soluble form; beta2-microglobulin, non-covalently associated with the heavy chain; Surmised: the His tag sits on the truncated heavy chain; also called mouse FcRn; the mouse receptor
One may read the Kd as a measure of binding affinity in units of concentration. Read a high Kd as a looser complex. In general, koff refers to a measure of how fast the partners let go of each other. As a reminder, the kon is the second-order rate constant of association. Read a low kon as slower complex formation. In assay [1], B1 displayed a Kd of 547 nM, an off-rate constant (koff) of 0.0164 s⁻¹ and a kon of 30000 M⁻¹ s⁻¹. For the same molecule, in assay [2], the “fold change of KD in 0.005% against 0.05% Tween-20” value came out at 1.7 fold.
